This data set in a line: soluble on expression in E. coli; label from the status in PepcDB or PDB records.
In the case of “MMLSNFKRNKYQQHLAQLPRISQNADDVQTLHSPELFRTTLTNAILRAKKRVYIVALYLERDDGGIGILSAIYEAKRQCPELDVRVLVDWHRAQRGRIGTAAENTNADWYCDMAKKHPDTHFPIYGIPVNTREALGVLHLKGFIVDDTVIYSGASLNDVYLHQHQKYRYDRYQLIHNPVLADTMVQYIQTMLSAPAVQRLDHTDRPKSLEIKNDIKQFRQTLRTASYQAPECSANANELTVTPLVGLGKQSPLNKTIHHLMYCADEHLVICTPYFNMPALLVRNIIRLLRDGKKVEIIIGDKTANDFYIPEDQPFKIIGALPYLYEINLRRFLSRLERYIENQQLVVRLWKDGDNSFHLKGMWVDGKWQLLTGNNLNPRAWRLDLENAILIHDPQQVLLQQRLDELDTIRTHTHVVKSYTELESIAQYPVKVRKLIRRLRRIRIDRLISRILLEHHHHHH”, the “soluble on expression in E. coli” value is on record as “not soluble”.
“AHHHHHHGSKERLEKLVKFMDENSIDRVFIAKPVNVYYFSGTSPLGGGYIIVDGDEATLYVPELEYEMAKEESKLPVVKFKKFDEIYEILKNTETLGIEGTLSYSMVENFKEKSNVKEFKKIDDVIKDLRIIKTKEEIEIIEKACEIADKAVMAAIEEITEGKREREVAAKVEYLMKMNGAEKPAFDTIIASGHRSALPHGVASDKRIERGDLVVIDLGALYNHYNSDITRTIVVGSPNEKQREIYEIVLEAQKRAVEAAKPGMTAKELDSIAREIIKEYGYGDYFIHSLGHGVGLEIHEWPRISQYDETVLKEGMVITIEPGIYIPKLGGVRIEDTVLITENGAKRLTKTERELL”: the “soluble on expression in E. coli” value was “not soluble”.
Regarding “MGSDKIHHHHHHMSIYRKIDRNKIQFDFIVHKTGKNFFEDEILKLGGRIYRLPNKRKHPFKYKQEFLNVIKNYKIIHVHSVYAFTYYEVKWARQCQKSVILHSHNSDAKLLRKIIHYLFKHLQNHYVSVRLSPSKQAAKWMFNEGHDKVVYLYNGFDTTKFQFDMNSRIEIREQLGLANNDYIIGCVGRLDWQKDPIYLLRLFEKLKANDNAYKLIFIGDGSYRQTLERETHQKGLVNDVIFTGSVSNVPEYLSALDIFVLPTRYEGLGISLIEAQINGLPVFTNKDVPKEAVINQNMYLLDKGDSELWVDAINKELNVINLKKRKVNLSDFNQYNIETVVKKLQNIYLQLLS”, the “soluble on expression in E. coli” value is recorded as “not soluble”.
As to “MGSDKIHHHHHHMLDPIEFIHNASSISKKSMNRLKLKTNPFSEKPIRGNTKFFVGRTSELSEIADILGAAQYGSVANAAIVGTKGIGKSSILNILYYASKRHNHWVVELEASQITARQFLIQLMYGIIKDNLFSVDGTLSSDYMKHSQKIIEIYKRLSNYSDKTPVHYPREKIERDLKYLLNEVKEENKLCVILIDEADQFAKRSCLGLLQFFHSFLYEDDILTFLAGPPTMVEDLTKISPAIRDRIPKIINMPPLTKEEAYDLIKRRLEDSQITGAKGYQPFSEQSIEKIIEECDGIPRRIIMTCSEAVSLGLKNGVDEIDDEIARNAMKNLGISVGHQILNHLTPAQSKIIKAMAELGGSSTVTELSGILNNSTGTIGTHLSDIYEMGYIYKERDGYNVYYTLSKELKDVLITKEDIS”, the “soluble on expression in E. coli” value was “not soluble”.
With “MGSDKIHHHHHHDYKLVIFASFNGKAYSDNPRYLFEYLRDHEEFASYHFVWAFKVKRSVNRAKVVKFNSFSYYYLLSKAKYWVFNSKMAPYYHKKGEQVYLQTWHGTPLKRLGHDILDNGITYYRSRLSYQQMLRSYDEDSRHWDYLISPNPFSSQAFTSAFNLDRGKLLEVGYPRVDFLVNADSNKCMELKRRYGLPLDKKVVLYAPTWRDDSFGIRGYRFELAVDFYKWKNQLGDDTVILFKPHYLISNVYQIPNDLSNFVYLMAASADINDAYLMSDVLITDYSSVFFDYANLNRPIYFYMYDFEQYEQELRGFYLNVPDELPNDVIRTEKELLRRIKEDIFDYDRLQVFNQVFNSWNDGKVSSKVAKRIFYEN” the entry was “not soluble”.
With “MFPQTTMDHILHPTPREGYYVVELNRSVWVVPNYYINLTPIGTGAYGTVCAAECTRSGTRVAIKKFNRPFQSIIHARRTYRELRLLRCMCHENIIDLLDVFTPNENVNDIEDVYFVSMLMGADLSNILKIQRLNDDHIQFLVYQILRGLKYIHSADIIHRDLKPSNIAVNEDCELKILDFGLARQTDSEMTGYVATRWYRAPEIMLNWMHYTQTVDVWSVGCILAELITGKTLFPGSDHIDQLTRIMSVTGTPDEEFLKKISSEEARNYIRNLPKMTRRDFKRLFAQATPQAIDLLEKMLHLDPDRRPTAKEAMEHEYLAAYHDETDEPIAEEMDLNDDVRADTIDEWKKIIWEEISDFQKNVAFADEEEDEEKMES” the entry was “not soluble”; with “MKRHFRPSLIKTEAWEGYEFADKEIKITESTDCYGAVLWPSAMVLCHFLDSHRDQYNLLDKKIIELGAGTGLVTIVTSLLGAQVTSTDLPDVLANLRHNVNRNTRGRCRHEPQVTELIWGQQLEERFPRYTCQYDYILAADVVYGHPYLQELLETFIHLCSDHTVILWAMRFRLDPENRFVHTFQEHFHLEELYDLPSLSIKLYRAHKR”, “not soluble”.
“MAHHHHHHMEPHMTSLVLRRDLSLEVPKLLIGAVQPYQTLAGPALTTSFLHQPDLLPFQRTAFSHAAVAPLYFHTLLHTLAEFAETPRAVQYSAVKLRHAPKADFWDSVGTLNCFYYSAHAPYGAPVEASVLDQHPAMGAVELVRPGHRMESDVKLTLFNDSHQPIASMLMTGPNGAPRETDDDAVESSQGTSSTSPHARTAFPYVAPPTKETTSASDCLSAVMIGGTRVYGGLYGDLMPMESGGGFGQRACYRVEDAAAYSPSLDARSRVSGTEAAAGERTASSSASTVMPPWVLYDCVQRFFLRLHRSGIFGGDAAVAPTEGWRVSAHHVVQTEDAVFGVPVEVVCAVPRVYPSYRLPPWRHRLGLPAIPNGAPPCVCLRCETRQGGRLVSTGVYFFNRW”: the “soluble on expression in E. coli” value is “soluble”.
As for “MGSDKIHHHHHHMKTIEVLSLRKYFPIRKGFLVKKIVGYVKAVDDISFSVEKGKTFALVGESGCGKTTTAKTILRLTNPTAGRVVIDGDDTTYYFMKRRDAENYLETTYVDIFREMREKLSPDQIVDVLEDVDKKYAEIFFKEAKESEEKFYQILLDDIDEKRMKFRRKIQIVFQDPMSSLNPRMTVGDILTEPILFHGLAKTREEAVDMAKDLLKSVGLKEYHLERYPHQFSGGQRQRIAIARAISINPEIVILDEPTASLDVSVQAQVINLFLKLQEEKGFTYLFISHDLGLVRFISHEVGIMYLGRIVEMGNTDEIFDNPLHPYTQALLSAVPVPDPKVERTRKRIILRGGVPSPINRPTGCFFHPRCPYKMPVCEKEYPVMKEISPGHWVACHLHSS”, the “soluble on expression in E. coli” value is listed as “not soluble”.
With “QSGHTKKINDKEMLDYKGRIPVGTLTLKFDQPVKDPILDFSGLGGYNIFSAHHEEASHEGIRNWEVRNGKIVVTGESASVVGAQINDQIRGSFNHTDLELETPGVKLVELAKNSNLKVDDRSISTVAANNDYVCNTPNDYQTLPEELENGPSYEQNDAFLSPVMKPAGCGSVLAQGEFSELKFTLFSSVEPMSSFAHDTHKTGLLYFAGGVNGGNANPVTPIPMLEGYSKPQEVSDTSNGDLFRMSIRLPEEPVKGSVSVGDFVWIDKDADGRQDDNEPGLAGVKLWLYGPDGGPVTDVHGKVVKSVTTGEDGKYSFKDLPVLTGSDSYTVKVVDVPAGYKPTLSGTGKVPAFKDSSTDLAKSTPGALSENGAQDLTLDFGFVKESATPSDPTVPGFK” the entry was “not soluble”; with “FASNWVSHTHEVIQTIDTCLYDIVEIESRQRFYLIRGSSSQLMADIDDMKSTLQLNLDKLEQLTRDNPEQNKRIHRFIDLVKQRLNLLNQLVQLKGSGKLDTQEGYDLLNQSQDMSHQVKSLGQEIKSVELVLLSERNTG”, “not soluble”; with “ASWSHPQFEKGAMALTEAWLIEKANRKLNAGGMYKITSDKTRNVIKKMAKEGIYLCVAQGYRSTAEQNALYAQGRTKPGAIVTNAKGGQSNHNYGVAVDLCLYTNDGKDVIWESTTSRWKKVVAAMKAEGFKWGGDWKSFKDYPHFELCDAVSGEKIPAATQNTNTNSNRYEGKVIDSA”, “soluble”.
In the case of “MGKNKQNKFFQMKASANGKTADVFIYGEITKYAWEEYGEVSSITFKNELDELGDDIKTINLYINSPGGSVFETMAIIAMLQRHHAKIISYIDGIGASCASVLPMISDKIIMYANSMMMIHNAWTYASGNADQLRKAADDIERINQSMVQHYLTRAGDKLDEDTLKQLLDAETWLSAEEAMGYGLCDEIIPANNATACLDEKWMKEYKNIPQQLVNAQANISSNEMLERQKIAEEAKANADYIKTILGRIHS”, the “soluble on expression in E. coli” value is recorded as “not soluble”.
With “MSLKSFNEIIMKVKSKEMKKVAVAVAQDEPVLEAVRDAKKNGIADAILVGDHDEIVSIALKIGMDVNDFEIVNEPNVKKAALKAVELVSTGKADMVMKGLVNTATFLRSVLNKEVGLRTGKTMSHVAVFETEKFDRLLFLTDVAFNTYPELKEKIDIVNNSVKVAHAIGIENPKVAPICAVEVINPKMPSTLDAAMLSKMSDRGQIKGCVVDGPLALDIALSEEAAHHKGVTGEVAGKADIFLMPNIETGNVMYKTLTYTTDSKNGGILVGTSAPVVLTSRADSHETKMNSIALAALVAGNKEGHHHHHH”, the “soluble on expression in E. coli” value is recorded as “soluble”.
With “MTVIQWFPGHMAKAKREVQEKLKLIDVAFELLDARVPMSSRNPMIDEILGQKPRLILLNKADMADEAVTEQWIRYFHDQGRLALPIDAQSGTGVRQIAAAAKEMVKDKFEKMRAKGIKNPRPVRALIVGIPNVGKSTLINRLAGRHIAKTGDKPGVTKAQQWIKVGKEMELLDTPGILWPKFEDEDVGYKLAVTGAIKDEILNLQDVAVYALRFLSTHYPNRLAERYGLDDIPDDIVALFDAIGRQRGCLTSGGAVDYDKVADIVLYDIRTEKLGRLSFETPASRT” the entry was “not soluble”.
With “MRFEEEIGSLQMLCDQFQNKINTLEKQMNEEKKDYVQKLHRLHEKNGEAIDKMKQLDHTMQAVSTKVVHLGDQLESVDQPRSRAHDAHQLMQHFDEFLSDQPLNSMIFTDPDKLLESADLVHKLYSISQELNKDKFANVQARIGQRYKVVEDLLIEEFVRSQRDEKKMAEVAKILSEFKGYSGCVDRYVDFLCQSIHPRGDGGEILADCLQLCRTQQPRISAIFPSPHTVMQKLVLNIFTGRMKETITARLRECKDTDDQEHYLRDLAYLYSSTLKMCKELEKLHISPDSAFLSTLTDSIFQRYIATYCSEELKYLNDQCSNLLQRFYESKKHVKKQIGGGLHELKRDVAARLMNVETYGGETFVAEDVAISILQETKNAFGRANQLCDKEELPRHVENIVDVLLKYLYGEHLDYAVETGLAGISLAESKTEPPAYFFSVVAKCTSVILLMIKQFEDPIFPIIKETIVEPSVAKKWQQSLRSLESKMSLGLERQLNSIVGYVKFLFSEQKKTDFRPDSQQIDIRVSPQCQLASRFLANQVAAMELGCDGENLEALQSDLATRLFKFMLTHIQQFTYNSTGAVLLLCDVGELRTLVSKWRVQNALTQWESLQALTNLLAVLPDQVNETAHSSLLENVDRQLIHDFVRLRTDFRSIKNFQI” the entry was “not soluble”; with “GPGSMQAIITTAKSFAGDEKRPRDVKAAAAAPVLDWATMYTRRPAGTSTLFTLEAMVAKRMELLAWIDQLMNSPNVRSFSVVLDEIGARLPIERRKHVTQHAADHVVVLGRDDSPAADDADSFRTPRLSVSRSSGSAALNAFVFEGDEDLISHLLARFAFCMSEQWRKWFVKTEEALLRARLKLQMAKYETDFLPSLMRDNGLPCDPLSDEQWQDPLLQEYIVYFAVFQGKQQSRSREDYFSVPMTLATRLIKTRSVLCLKGHAILHRDQAQEVFVTVFRSKLNKGLHEAYLARMRLTSNEEDEERETVMRMLDAFLEYFVSDPTSAIQEAASGAVSAGEVRRIAQTHFPLCMRQVDEHLRREGHLKHHGRFTYGLFLKAIGLSLQDSMTLFSSLMTVKGVAGNSEAFAKTAYGYNIRHNYGMEGKKTSYSSMSCATLLALPPVVDRFDCHGCPFRFKDEGAFRSMLLKEQLNPLGKEHPPLRPSASDIEEIVQDCKGQHYTRACYKYFVATHPGVKRDTLFRSPFEYYTLSREVGERPEEILSEQTTPARRLMTGDSLKRSMFTPTLKEDVIRERKSPP”, “not soluble”.

The values are drawn from the DeepSol protein solubility set.
